Results reported in patent US20260176378A1 (DYAX, published 2026).

Legend:
human plasma kallikrein = molecular target: T1, human plasma kallikrein (human, UniProt P03952 20-390; P03952 391-638); experiment: ELISA, biotinylated pKal signal over streptavidin background
T1 construct: two disulfide-linked chains; NP_000883.2; also called pKal; hpKal

[1] = molecular target: T2, pKal catalytic domain Mutant 2 (human, UniProt P03952 391-638); experiment: equilibrium Ki,app
T2 construct: Pichia pastoris; construct limits derived as for the wild type domain; not shown: His tag fusion
T2 sequence (P03952 other isoform, or with tags, fused parts or gaps mutant): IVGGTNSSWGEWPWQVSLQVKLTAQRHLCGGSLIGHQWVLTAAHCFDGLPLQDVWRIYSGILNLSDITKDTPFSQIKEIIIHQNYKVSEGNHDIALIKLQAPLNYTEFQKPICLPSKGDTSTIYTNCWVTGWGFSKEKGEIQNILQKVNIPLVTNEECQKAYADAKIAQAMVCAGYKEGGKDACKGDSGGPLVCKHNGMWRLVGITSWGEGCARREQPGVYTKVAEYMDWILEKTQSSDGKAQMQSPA
Method: Enzyme and inhibitor were pre-incubated for 2 hours at 30° C. in a 96-well plate by adding 10 μL of a 10× enzyme solution and 10 μL of 10× inhibitor solutions to 70 μL of reaction buffer. Reactions were initiated by the addition of 10 μL of a 10× concentrated stock of substrate, and were monitored at 30° C. in a fluorescence plate reader with the excitation and emission wavelengths set at 360 nm/460 nm, respectively. Kinetic data were acquired by the increase in fluorescence, and initial rates for each condition were plotted against the total inhibitor concentration. The data was fit to the following equation for tight binding inhibitors: […]

T1 sequence (P03952 20-390 limits assumed, chain 1 of 2): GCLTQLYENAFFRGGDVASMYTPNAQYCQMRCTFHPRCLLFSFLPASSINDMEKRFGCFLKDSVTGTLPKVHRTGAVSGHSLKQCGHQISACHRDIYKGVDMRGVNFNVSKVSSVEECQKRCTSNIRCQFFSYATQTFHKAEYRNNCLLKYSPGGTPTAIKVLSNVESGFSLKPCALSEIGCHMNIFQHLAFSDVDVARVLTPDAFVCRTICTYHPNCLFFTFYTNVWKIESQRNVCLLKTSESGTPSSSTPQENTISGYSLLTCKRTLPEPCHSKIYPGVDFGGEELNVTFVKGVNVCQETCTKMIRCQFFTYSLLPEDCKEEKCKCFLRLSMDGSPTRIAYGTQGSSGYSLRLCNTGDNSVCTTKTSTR
T1 sequence (P03952 391-638 limits assumed, chain 2 of 2): as the sequence (P03952 other isoform, or with tags, fused parts or gaps mutant) above, with A161R, A163Q, A165Y, A168T, A170R counted along it

Row | Binder | ELISA (T/B) (human plasma kallikrein) | fold change of Ki,app against the wild type catalytic domain [1] [fold]
1 | M6-D09 (Fab, V domains shown, also called M06-D09; 559A-M06-D09) VH: EVQLLESGGGLVQPGGSLRLSCAASGFTFSFYYMVWVRQAPGKGLEWVSVIYPSGGITVYADSVKGRFTISRDNSKNTLYLQMNSLRAEDTAVYYCARDKWAVMPPYYYYAMDVWGQGTTVTVSS VL: DIQMTQSPSSLSASVGDRVTITCRASQSIRNYLNWYQQKPGKAPNLLIYAASTLQSGVPARFSGSGSGTDFTLTISSLQPEDFATYYCQQLSGYPHTFGQGTKLEIK | 39.9 | ~5
2 | M7-E07 (Fab, V domains shown) VH: EVQLLESGGGLVQPGGSLRLSCAASGFTFSWYLMIWVRQAPGKGLEWVSYIYPSGGFTYYADSVKGRFTISRDNSKNTLYLQMNSLRAEDMAVYYCARTEGPLSWGYGMDVWGQGTTVTVSS VL: not shown | 45.7 | –
3 | M161-C11 (Fab, V domains shown) VH: EVQLLESGGGLVQPGGSLRLSCAASGFTFSDYAMKWVRQAPGKGLEWVSSISSSGGVTQYADSVKGRFTISRDNSKNTLYLQMNSLRAEDTAVYYCAREEDYSSSWYSRRFDYYYGMDVWGQGTTVTVSS VL: QSALTQPPSVSVSPGQTASITCSGDKLGDKYVSWYQQRPGQSPVLVIYQDTKRPSGIPERFSGSNSGNTATLTISGTQAVDEADYYCQAWDSSTYVFGGGTKVTVL | 41.8 | –
4 | M162-A04 (antibody, V domains shown, phage-derived Fab; also called R84-H05; M162-A4) VH: EVQLLESGGGLVQPGGSLRLSCAASGFTFSHYIMMWVRQAPGKGLEWVSGIYSSGGITVYADSVKGRFTISRDNSKNTLYLQMNSLRAEDTAVYYCAYRRTGIPRRDAFDIWGQGTMVTVSS VL: DIQMTQSPSTLSASVGDRVTITCRASQSISSWLAWYQQKPGKAPNLLIYKASTLESGVPSRFSGSGSGTEFTLTISSLQPDDFATYYCQQYNTYWTFGQGTKVEIK | 11.4 | –
5 | M146-E12 (Fab, V domains shown, claim 26 (viii) gives VL 265 and VH 266 instead) VH: EVQLLESGGGLVQPGGSLRLSCAASGFTFSRYIMHWVRQAPGKGLEWVSSISPSGGLTSYADSVKGRFTISRDNSKNTLYLQMNSLRAEDTAVYYCAREFENAYHYYYYGMDVWGQGTTVTVSS VL: DIQMTQSPSSLSASVGDRVTITCRASGDIGNALGWYQQKPGKAPRLLISDASTLQSGVPLRFSGSGSGTEFTLTISSLQPEDFATYYCLQGYNYPRTFGQGTKLEIR | 49.6 | –
6 | M160-G12 (antibody, V domains shown, phage-derived Fab; also called R84-D02) VH: EVQLLESGGGLVQPGGSLRLSCAASGFTFSHYLMTWVRQAPGKGLEWVSYISPSGGHTIYADSVKGRFTISRDNSKNTLYLQMNSLRAEDTAVYYCARVARGIAARSRTSYFDYWGQGTLVTVSS VL: DIQMTQSPSFLSASVGDRVTITCRASQGISSYLAWYQQKPGKAPKLLIYAASTLQSGVPSRFSGSGSGTEFTLTISSLQPEDFATYYCQQLNSYPLTFGGGTKVEIK | 38.3 | –
7 | M10-F10 (Fab, V domains shown) VH: EVQLLESGGGLVQPGGSLRLSCAASGFTFSFYNMNWVRQAPGKGLEWVSSISPSGGETNYADSVKGRFTISRDNSKNTLYLQMNSLRAEDTAVYYCARGGGAYRNNWWGGFDIWGLGTMVTVSS VL: DIQMTQSPSSLSASVGDRVTITCRASQSISVYLNWYQHKPGKAPKLLIYGASNLQFGVPSRFSGSGYGTDFTLTISSLQPEDFATYHCQQTFSLFTFGGGTKVEIK | 39.2 | –
8 | M145-D11 (Fab, V domains shown, also called 559A-M145-D11 (sFab); 559A-M0145-D11) VH: EVQLLESGGGLVQPGGSLRLSCAASGFTFSHYRMSWVRQAPGKGLEWVSSIYPSGGRTVYADSVKGRFTISRDNSKNTLYLQMNSLRAEDTAVYYCAKDKFEWRLLFRGIGNDAFDIWGQGTMVTVSS VL: QSVLTQPPSVSVSPGQTASITCSGDKLGDKYTSWYQQRPGQSPVLVIYQDIKRPSGIPERFSGSNSGNTATLTISGTQAMDEADYYCQAWDSPNARVFGSGTKVTVL | 40 | –
9 | M152-A12 (Fab, V domains shown) VH: EVQLLESGGGLVQPGGSLRLSCAASGFTFSPYFMGWVRQAPGKGLEWVSGIGPSGGSTTYADSVKGRFTISRDNSKNTLYLQMNSLRAEDTAVYYCAREGPPYSSGWYRGLRQYHFDYWGQGTLVTVSS VL: DIQMTQSPSSLSASVGDRVTITCRASQSISSYLSWYQQRPGKAPNLLIYAASSLQSGVPSRFSGSGSGTDFTLTISSLQPEDFATYYCQQSISIPRTFGQGTKVEVK | 19 | –
10 | M8-A09 (Fab, V domains shown) VH: EVQLLESGGGLVQPGGSLRLSCAASGFTFSTYFMLWVRQAPGKGLEWVSSIYPSGGNTVYADSVKGRFTISRDNSKNTLYLQMNSLRAEDTAVYYCARAASPVRNYYYYGMDVWGQGTTVTVSS VL: QCELTQPPSESVSPGQTANITCSGDKLGNKYAYWYQQKPGQSPVLVIYQDNNRPSGIPERFSGSNSGNTATLTISGTQAIDEANYYCQAWDSRTVVFGGGTKLTVL | 5.4 | –
